The target in assay [1] is CD4 receptor on the target cells of the virus neutralization assay (human, UniProt P01730 26-458). Put plainly: cell-based or functional assay.
The target in assay [2] is T1, human soluble CD4 (sCD4) (human, UniProt P01730 26-396).
T1 construct: also called human CD4
Put plainly: SPR, Biacore-3000.

Assay [3] deals with T1, human soluble CD4 (sCD4). Put plainly: competition ELISA on plate-coated sCD4; competitor: fixed concentration of HRP-labeled iMab. For orientation: In an ELISA, binding on a coated surface is turned into a signal by an enzyme label.

The Kd is the concentration at which binding is half-saturated. Read a low Kd as tighter binding. By koff is commonly meant the rate constant with which the complex falls apart. Read a low koff as slow dissociation. What is called kon is the rate constant with which the complex forms. A higher kon goes with fast association.

B1: iMabm36 fusion antibody (bispecific antibody, human IgG1, kappa)
heavy: QVQLQQSGPEVVKPGASVKMSCKASGYTFTSYVIHWVRQKPGQGLDWIGYINPYNDGTDYDEKFKGKATLTSDTSTSTAYMELSSLRSEDTAVYYCAREKDNYATGAWFAYWGQGTLVTVSSASTKGPSVFPLAPSSKSTSGGTAALGCLVKDYFPEPVTVSWNSGALTSGVHTFPAVLQSSGLYSLSSVVTVPSSSLGTQTYICNVNHKPSNTKVDKKVEPKSCDKTHTCPPCPAPEFEGGPSVFLFPPKPKDTLMISRTPEVTCVVVDVSHEDPEVKFNWYVDGVEVHNAKTKPREEQYNSTYRVVSVLTVLHQDWLNGKEYKCKVSNKALPASIEKTISKAKGQPREPQVYTLPPSRDELTKNQVSLTCLVKGFYPSDIAVEWESNGQPENNYKTTPPVLDSDGSFFLYSKLTVDKSRWQQGNVFSCSVLHEALHSHYTQKSLSLSPGKLEGGGGSGGGGSGGGGSGQVQLVQSGGGLVQPGGSLRLSCAASAFDFSDYEMSWVRQAPGKGLEWIGEINDSGNTIYNPSLKSRVTISRDNSKNTLYLQMNTLRAEDTAIYYCAIYGGNSGGEYWGQGTLVTVSS
light: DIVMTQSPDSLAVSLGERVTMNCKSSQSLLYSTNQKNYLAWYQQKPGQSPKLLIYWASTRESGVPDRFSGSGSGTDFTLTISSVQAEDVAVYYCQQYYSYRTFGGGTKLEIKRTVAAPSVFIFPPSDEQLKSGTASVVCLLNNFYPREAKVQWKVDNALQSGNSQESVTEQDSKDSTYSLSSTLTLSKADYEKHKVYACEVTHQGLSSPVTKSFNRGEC
Turning to B1, the “IC50 (read off the curve), virus G23 [Virus (G23]” value in assay [1] is about 0.2 nM.

B2: iMab mutant E95A (CDR-H3 ARAKDNYATGAWFA) (antibody, V domains shown)
VH: QVQLQQSGPEVVKPGASVKMSCKASGYTFTSYVIHWVRQKPGQGLDWIGYINPYNDGTDYDEKFKGKATLTSDTSTSTAYMELSSLRSEDTAVYYCARAKDNYATGAWFAYWGQGTLVTVSS
VL: DIVMTQSPDSLAVSLGERVTMNCKSSQSLLYSTNQKNYLAWYQQKPGQSPKLLIYWASTRESGVPDRFSGSGSGTDFTLTISSVQAEDVAVYYCQQYYSYRTFGGGTKLEIK
Regarding B2, in assay [2], the Kd turned out to be 7.7 nM, the koff is 0.0048 s⁻¹ and the association rate constant (kon) was found to be 620000 M⁻¹ s⁻¹.

B3: m36 (other)
VH: QVQLVQSGGGLVQPGGSLRLSCAASAFDFSDYEMSWVRQAPGKGLEWIGEINDSGNTIYNPSLKSRVTISRDNSKNTLYLQMNTLRAEDTAIYYCAIYGGNSGGEYWGQGTLVTVSS
notes: also called m36 polypeptide
With B3, the binding result in assay [3] is listed as “no binding”.

For the origin of these results see patent US20120121597A1 (ROCKEFELLER UNIVERSITY, published 2012).
